Measured values from patent US20140363416.

How the values were obtained:
[1] = test system: GST-ATF2 fusion protein (Cell Signaling)
[2] = target: His/TF-tagged-XBP1s (recombinant XBP1s fusion protein purified from E. coli) (UniProt O35426)

activated recombinant p38α MAPK (Cell Signaling)
in vitro kinase assay, phosphorylation of the control substrate [1]: activated recombinant p38 MAPK is fully functional and phosphorylates ATF2
in vitro kinase assay, immunoblotting with phospho-specific antibodies for p-XBP1s^Thr48 and p-XBP1s^Ser61 [2]: p38 MAPK directly phosphorylates XBP on Thr48 and Ser61 residues in the in vitro kinase assay
in vitro kinase assay, incorporated 32P (phosphorylation) by autoradiography [2]: Incubation of XBP1s with activated recombinant p38 MAPK significantly increased phosphorylation of XBP1s
